Results taken from patent US20170210787A1 (Janssen / Centocor, published 2017).
Like-named read-outs stand apart in the source and are kept apart here.

Experiments:
tau 299-369 [1] = molecular target: tau 299-369 (human); assay: ELISA on biotinylated peptide captured on streptavidin plate, IgG titrated [a]
tau 299-369 [2] = molecular target: tau 299-369 (human); assay: peptide ELISA, 1 ug/mL
tau 299-369 [3] = molecular target: tau 299-369 (human); assay: peptide ELISA, 1 ug/mL; remark: listed apart in the source
tau 299-369 [4] = molecular target: tau 299-369 (human); assay: ELISA on biotinylated peptide captured on streptavidin plate, IgG titrated [a]; remark: listed apart in the source

- EC50 (read off the curve) (tau 299-369 [1]): ~0.1 µg/mL
- OD450 (tau 299-369 [2]): > 1.5 od
- OD450 (tau 299-369 [3]): 1 to 1.5 od
- EC50 (read off the curve) (tau 299-369 [4]): ~0.2 µg/mL
B1: CBTAU-27.1 (antibody, V domains shown)
VH: QVQLVESGPEMRKPGESLKISCKTSGYIFSDYWTAWVRQLPGKGLQWMGIIYSGDSDTRYHPSVQGHVTMSTDSSLTTAYLQWSSLKASDTGIYYCARLDARVDAGWQLDSWGQGTLVTVSS
VL: DIQLTQSPDSLAVSLGERATINCKSSQSVFSRDNNKNYLAWYQHKSGQPPKLLFFWASSRESGVSDRFSGSGSGTDFTLTIDNLQAEDVALYYCQHYFNTPHNFGQGTKLEIK
